Tests used:
[1] = biological target: chimeric (mouse and human) CD40 (chiCD40) on transfected CHO cells (chimeric (mouse and human)); test: flow cytometry, CHO-chiCD40 cells, negative control, anti-mIgG Fc-FITC; x: Anti-mouse-IgG-Fc-FITC, y: SSC-H
[2] = biological target: mouse CD40 (mCD40) on transfected CHO cells (mouse) (UniProt P27512); test: flow cytometry, CHO-mCD40 cells, negative control, anti-mIgG Fc-FITC; x: Anti-mouse-IgG-Fc-FITC, y: SSC-H
[3] = biological target: monkey (rhesus macaque) CD40 (rmCD40) on transfected CHO cells (rhesus macaque); test: flow cytometry, CHO-rmCD40 cells, negative control, anti-mIgG Fc-FITC; x: Anti-mouse-IgG-Fc-FITC, y: SSC-H
monkey (rhesus macaque) CD40 (rmCD40) on transfected CHO cells (rhesus macaque), sequence (P25942 other isoform, or with tags, fused parts or gaps limits assumed): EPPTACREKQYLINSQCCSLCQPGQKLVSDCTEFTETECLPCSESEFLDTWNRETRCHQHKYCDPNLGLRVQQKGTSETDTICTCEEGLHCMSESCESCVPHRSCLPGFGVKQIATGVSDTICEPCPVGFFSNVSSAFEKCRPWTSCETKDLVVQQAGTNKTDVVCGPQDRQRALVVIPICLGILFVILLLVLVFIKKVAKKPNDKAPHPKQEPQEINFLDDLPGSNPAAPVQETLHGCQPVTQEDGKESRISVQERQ

chimeric (mouse and human) CD40 (chiCD40) on transfected CHO cells (chimeric (mouse and human)), sequence (chain, as listed by the source mutant limits assumed): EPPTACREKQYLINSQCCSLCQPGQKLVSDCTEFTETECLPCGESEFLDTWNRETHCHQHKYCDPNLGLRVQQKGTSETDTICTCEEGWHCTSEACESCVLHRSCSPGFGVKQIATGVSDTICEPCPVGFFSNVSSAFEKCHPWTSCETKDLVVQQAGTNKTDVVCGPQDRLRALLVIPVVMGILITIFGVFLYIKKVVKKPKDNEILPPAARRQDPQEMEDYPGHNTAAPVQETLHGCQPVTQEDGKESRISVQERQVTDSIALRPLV
mouse CD40 (mCD40) on transfected CHO cells (mouse), sequence (P27512 20-289 limits assumed): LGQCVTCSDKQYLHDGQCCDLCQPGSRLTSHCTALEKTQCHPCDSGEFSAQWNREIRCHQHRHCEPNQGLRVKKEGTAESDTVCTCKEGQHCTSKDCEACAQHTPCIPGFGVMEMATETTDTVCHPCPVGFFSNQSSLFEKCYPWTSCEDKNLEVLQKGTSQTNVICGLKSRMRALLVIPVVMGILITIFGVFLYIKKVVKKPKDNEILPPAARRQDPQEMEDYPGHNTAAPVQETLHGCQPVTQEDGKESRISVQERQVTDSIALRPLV

NC
% cells in the Anti-mouse-IgG-Fc-FITC positive gate [1]: 1.19%
% cells in the Anti-mouse-IgG-Fc-FITC positive gate [2]: 1.01%
% cells in the Anti-mouse-IgG-Fc-FITC positive gate [3]: 1.19%

Source: patent publication US20250034271A1
